To fix the notation:
B1: glmS ribozyme (parent)
chain: AUAAAAGCGCCAGAACUACAGAAAUGUAGUUGACGAGGAGGAGGUUUAUCGAAUUUUCGGCGGAUGCCUCCAAA

± gives the standard error. Variants at the floor of the assay were thinned out.

The variants in the first data set derive from B1. Nature of the data set: self-cleavage kobs at 2500 uM GlcN6P; higher = faster cleavage; RNA array. Conditions: with glucosamine-6-phosphate. The method in brief: (§1)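 Tiles bearing barcoded ribozyme variants, transcribed in situ by E. coli RNA polymerase on sequenced MiSeq chips, were imaged over ~14 h at 37 °C using a hybridised Cy3 probe. Glucosamine-6-phosphate was supplied at 40 μM to 10 mM in HEPES/KCl/Mg(OAc)2 buffer. kobs came from one- or two-exponential decay fits to normalised per-tile medians, and weighted Michaelis–Menten fits then provided kcat and KM.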
AUAAAAGCGGCAGAACUACAGAAAUGUAGUUGACAAGGAGGAGGUUUAUCGAAUUUUCGGCGGAUACCUCCAAA [C10G G35A G66A]: the “self-cleavage kobs at 2500 uM GlcN6P” value is less than 1e-05 s⁻¹.

Take AUAAAAGCGCCAGAACUACAGAAAUGUAGUUGAGGAGGAGGAGGUUUAUCGAAUUUGCGGCGGAUGCCUGCAAA [C34G U57G C70G]: the “self-cleavage kobs at 2500 uM GlcN6P” value is 0.00021 ± 4.8e-05 s⁻¹.

AUAAAAGCGCCAGAACUACAGAAAUGUAGUUGACGAGGAGGUGGUUUAUCGAAUUUUUGGCGGAGGCCUCCAAA [A42U C58U U65G]: the “self-cleavage kobs at 2500 uM GlcN6P” value was less than 1e-05 s⁻¹.

For the variant AUAAAAGCGCCAGAACUACAGAAAUGUAGUUGACGAGGAGGAGGUUUAUCUAAGUUUCGGUGGAUGCCUCCAAA [G51U U54G C61U], the “self-cleavage kobs at 2500 uM GlcN6P” value was less than 1e-05 s⁻¹.

Take AUAAAAGCGCCAGAACUACAGAAAUGUAGUUGACGAGCAGGACGUUUAUCGAAUUGUCGGCGGAUGACACCAAA [G38C G43C U56G C67A U69A]: the “self-cleavage kobs at 2500 uM GlcN6P” value is less than 1e-05 s⁻¹.

As to AUAAAAACUCCAGAACUACAGAAAUGUAGUUGACGAGGAGGAGGUUUAUCGAAUUUUCGGCGGAUGCCUCCAAA [G7A G9U], the “self-cleavage kobs at 2500 uM GlcN6P” value was less than 1e-05 s⁻¹.

AUAAAAGCGCCAGAACUACAGAAAUGUAGUCGACGAGAAGGAGGUUGAUCCAAUUUUCGGCGGAUGCCUCCAAA [U31C G38A U47G G51C]: the “self-cleavage kobs at 2500 uM GlcN6P” value is less than 1e-05 s⁻¹.

Take AUAAAAGCGCCAGAACUACAGAAAUGUAGUUGACGAAGGGGAGGUUUAUCGAAUUUUCGGCGGAUGCCUCGAAA [G37A A39G C71G]: the “self-cleavage kobs at 2500 uM GlcN6P” value turned out to be 0.000523 ± 0.00013 s⁻¹.

Consider AUAAAAGCGCCGGAUCUACAGAAAUGUAGUUGACGAGGAGGAGGUUUAUCGAAUUUUCGGCGGAUGCCUCGAAA [A12G A15U C71G], for which the “self-cleavage kobs at 2500 uM GlcN6P” value came out at 2.52e-05 ± 1.1e-05 s⁻¹.

For the variant AUAAAGGCGCCAGAACUACAGAAAUGUAGUUGACGAGGACGUGGUUUAUCGAAUUUUCGGCGGAUGCCUCCAAA [A6G G40C A42U], the “self-cleavage kobs at 2500 uM GlcN6P” value was less than 1e-05 s⁻¹.

For the variant AUAAAAGCGCCAGAACUACAGAAAUGUAGUUGACGAAGAGGAGGUUUAACGGAUUUUCGGCGGAUGCCUCCAAA [G37A U49A A52G], the “self-cleavage kobs at 2500 uM GlcN6P” value is less than 1e-05 s⁻¹.

AUAAAAGCGCCAGUACUACAGAAAUGUAGUUCACGAGGAGGAGGUUAAUCGAAUUUUCGGCGGAUGCCUCCAAA [A14U G32C U47A]: the “self-cleavage kobs at 2500 uM GlcN6P” value worked out at 8.18e-05 ± 1.8e-05 s⁻¹.

For the variant AUAAAAGCGCCAGAACUACAGAAAUGUAGUUGACGAGGAAGAGGUUUAUCGAAUUUUCGGCGGACGCCUCCAAA [G40A U65C], the “self-cleavage kobs at 2500 uM GlcN6P” value is 0.000394 ± 0.00015 s⁻¹.

Consider AUAAAAGCGCCAGAACUACAGAAAUGUAGUUGGCGAGGAGGAGGUUUAUCGGAUUUUCGGCAGAUGCCUCCAAA [A33G A52G G62A], for which the “self-cleavage kobs at 2500 uM GlcN6P” value was less than 1e-05 s⁻¹.

On to AUAAAAGCGCCAGAACUACAGAAAUGUAGUUCACGAGGAGGAGGUUUAUCGAACUUUCGGCGUAUGCCUCCAAA [G32C U54C G63U], for which the “self-cleavage kobs at 2500 uM GlcN6P” value is less than 1e-05 s⁻¹.

For AUAAAAGCGCCAGAACUACAGAAAUGUAGUUGACGAGGAGGAGGUUUAUCGAAUAAUCGGCGGGUGCCUCCAAA [U55A U56A A64G], the “self-cleavage kobs at 2500 uM GlcN6P” value worked out at 0.0035 ± 0.00087 s⁻¹.

Turning to AUAAAAGCGCCAGAACUACAGAAAUGUAGUUGGCGAGGAGGUGGUUUAACGAAUUUUCGACGGAUGCCUCCAAA [A33G A42U U49A G60A], the “self-cleavage kobs at 2500 uM GlcN6P” value was less than 1e-05 s⁻¹.

Take AUAAAAGCGCCAGAACUACAGAAAUGUAGUUGACGAGGCGGAGGAUUAUGGAAUUUUCGGCGGAUGCCUGCAAA [A39C U45A C50G C70G]: the “self-cleavage kobs at 2500 uM GlcN6P” value was less than 1e-05 s⁻¹.

Regarding AUAAAAGCGCCAGAACUACAGAAAUGUAGAUGACGAGGACGAGGUUUAUCGAGUUCUCGGCGGAUGCCUCCAAA [U30A G40C A53G U56C], the “self-cleavage kobs at 2500 uM GlcN6P” value is less than 1e-05 s⁻¹.

On to AUAAAAGCGCCAGAACUACAGAAAUUUAGUUGACGAGGAGCAGGUUUAUCGAAUUUUCGGCGGAUGCCUCCAAA [G26U G41C], for which the “self-cleavage kobs at 2500 uM GlcN6P” value was 0.000123 ± 3.4e-05 s⁻¹.

Turning to AUAAAAGCGCCAGAACUACAGAAAUGUAGUUGACGAGGAGGAGGUUUAUCUAAUUUUCCGCGGAUUCCUCCAAA [G51U G59C G66U], the “self-cleavage kobs at 2500 uM GlcN6P” value is less than 1e-05 s⁻¹.

AUAAAAGCGCAAGAAUUACAGAAAUGUAGUUGACGAGGAGGAGGUUUAUCGAAGUUUCAGCGGAUGCCUCCAAA [C11A C16U U54G G59A]: the “self-cleavage kobs at 2500 uM GlcN6P” value stood at 0.000138 ± 3e-05 s⁻¹.

Consider AUAAAAGCGCCAGAACUACAGAAAUGUAGUUGACGACGAGGAGGUUUAUCGAAUAUUCGGCGGGUGCCUCCAAA [G37C U55A A64G], for which the “self-cleavage kobs at 2500 uM GlcN6P” value came out at 4.29e-05 ± 1.2e-05 s⁻¹.

As for AUAAAAGCGCCAGAACUACAGAAAUGUAGUUCACGAGGAGGGGGUUUAUCGAAUUUUCUGCGGAUGCCUCCAAA [G32C A42G G59U], the “self-cleavage kobs at 2500 uM GlcN6P” value was less than 1e-05 s⁻¹.

Take AUAAAAGCACCAGAACUACAGAAAUGUAGUUGACGAGGGGGAGGUUUAUCGCAUUUUCGGCGGAUGCCUCCAAA [G9A A39G A52C]: the “self-cleavage kobs at 2500 uM GlcN6P” value was less than 1e-05 s⁻¹.

Consider AUAAAAGCGGCAGUACUACAGAAAUGUAGUUGACUAGGAGGAGGUUUAUCGAAUUUUCGCCGGAUGCCUCCAAA [C10G A14U G35U G60C], for which the “self-cleavage kobs at 2500 uM GlcN6P” value was less than 1e-05 s⁻¹.

AUAAAAGCGCGAGAACUACAGAAAUGUAGUUGACGAGGAGGAGGUUUAUCGUAUUUUCGGCGGAUGCUUCCAAA [C11G A52U C68U]: the “self-cleavage kobs at 2500 uM GlcN6P” value is less than 1e-05 s⁻¹.

Regarding AUAAAAGCGCCAGAACUACAGAAAUGUAGUUGACGAGGAGGAGGUUCAUCGAAUUUCCGGCGGAUGCCUCGAAA [U47C U57C C71G], the “self-cleavage kobs at 2500 uM GlcN6P” value was less than 1e-05 s⁻¹.

Turning to AUAAAAACGCCAAAACUACAGAAAUGUAGCUGAUGAGGAGGAGGUUUAUCGAAUUUUCGGCGGAUGCCUUCAAA [G7A G13A U30C C34U C70U], the “self-cleavage kobs at 2500 uM GlcN6P” value is less than 1e-05 s⁻¹.

AUAAAAGCGCGAGAACUACAGAAAUGUAGUUGACGAGGAGGAGGUUUAUCAAAUUUUCGGCGGCUGCCUCCAAA [C11G G51A A64C]: the “self-cleavage kobs at 2500 uM GlcN6P” value is less than 1e-05 s⁻¹.

For AUAAAAGCGCCAGAACUACAGAAAUGUAGUUGACGAGGAGGAGGUUUACUGAAUUGUCGGCGGAUGCCUCCAAA [U49C C50U U56G], the “self-cleavage kobs at 2500 uM GlcN6P” value is less than 1e-05 s⁻¹.

Take AUAAAAGCGCCAGAACUACAGAAAUGUACUAGACGAGGAGGAGGUUUAUCGAAUUUUCGGCGGAUGCCUCCAAA [G29C U31A]: the “self-cleavage kobs at 2500 uM GlcN6P” value came to 0.000502 ± 0.0001 s⁻¹.

In another data set the parent is B1. Nature of the data set: self-cleavage kobs at 10000 uM GlcN6P; higher = faster cleavage; RNA array. Conditions: with glucosamine-6-phosphate. The method in brief:
as §1
Regarding AUAAAAGCGCCAGAACUACAGAAAUGUAGUUGACGAAGAGGAGGUUUAACGGAUUUUCGGCGGAUGCCUCCAAA [G37A U49A A52G], the “self-cleavage kobs at 10000 uM GlcN6P” value was less than 1e-05 s⁻¹.

For the variant AUAAAAGCGCCAGAACUACAGAAAUGUAGUUGACGAGGAAGAGGUUUAUCGAAUUUUCGGCGGACGCCUCCAAA [G40A U65C], the “self-cleavage kobs at 10000 uM GlcN6P” value was 0.000296 ± 6.1e-05 s⁻¹.

In the case of AUAAAAGCGCCAGAACUACAGAAAUGUAGUUGACGAGGAGGAGGUUUAUCUAAUUUUCCGCGGAUUCCUCCAAA [G51U G59C G66U], the “self-cleavage kobs at 10000 uM GlcN6P” value is less than 1e-05 s⁻¹.

AUAAAAGCGCCAGAACUACAGAAAUGUAGUUGACGACGAGGAGGUUUAUCGAAUAUUCGGCGGGUGCCUCCAAA [G37C U55A A64G]: the “self-cleavage kobs at 10000 uM GlcN6P” value is 6.99e-05 ± 1.4e-05 s⁻¹.

As for AUAAAAGCGCCAGAACUACAGAAAUGUACUAGACGAGGAGGAGGUUUAUCGAAUUUUCGGCGGAUGCCUCCAAA [G29C U31A], the “self-cleavage kobs at 10000 uM GlcN6P” value came out at 0.000731 ± 0.00017 s⁻¹.

(Values after the supplement of paper PMC7125110.)
